Measured values reported in patent US20120329717A1.

Columns and labels:
[1] = target: recombinant N-type (Cav2.2) VGCC α1B-b/α2δ1/β3 expressed in Xenopus oocytes (rat; rabbit) (UniProt Q02294); assay: cell-based or functional assay
[2] = target: recombinant N-type (Cav2.2) VGCC α1B-b/α2δ1/β3 expressed in Xenopus oocytes (rat; rabbit), Q02294; assay: cell-based or functional assay
Chain of recombinant N-type (Cav2.2) VGCC α1B-b/α2δ1/β3 expressed in Xenopus oocytes (rat; rabbit), Q02294 (P13806 27-1106, stated change not applied, chain 2 of 2): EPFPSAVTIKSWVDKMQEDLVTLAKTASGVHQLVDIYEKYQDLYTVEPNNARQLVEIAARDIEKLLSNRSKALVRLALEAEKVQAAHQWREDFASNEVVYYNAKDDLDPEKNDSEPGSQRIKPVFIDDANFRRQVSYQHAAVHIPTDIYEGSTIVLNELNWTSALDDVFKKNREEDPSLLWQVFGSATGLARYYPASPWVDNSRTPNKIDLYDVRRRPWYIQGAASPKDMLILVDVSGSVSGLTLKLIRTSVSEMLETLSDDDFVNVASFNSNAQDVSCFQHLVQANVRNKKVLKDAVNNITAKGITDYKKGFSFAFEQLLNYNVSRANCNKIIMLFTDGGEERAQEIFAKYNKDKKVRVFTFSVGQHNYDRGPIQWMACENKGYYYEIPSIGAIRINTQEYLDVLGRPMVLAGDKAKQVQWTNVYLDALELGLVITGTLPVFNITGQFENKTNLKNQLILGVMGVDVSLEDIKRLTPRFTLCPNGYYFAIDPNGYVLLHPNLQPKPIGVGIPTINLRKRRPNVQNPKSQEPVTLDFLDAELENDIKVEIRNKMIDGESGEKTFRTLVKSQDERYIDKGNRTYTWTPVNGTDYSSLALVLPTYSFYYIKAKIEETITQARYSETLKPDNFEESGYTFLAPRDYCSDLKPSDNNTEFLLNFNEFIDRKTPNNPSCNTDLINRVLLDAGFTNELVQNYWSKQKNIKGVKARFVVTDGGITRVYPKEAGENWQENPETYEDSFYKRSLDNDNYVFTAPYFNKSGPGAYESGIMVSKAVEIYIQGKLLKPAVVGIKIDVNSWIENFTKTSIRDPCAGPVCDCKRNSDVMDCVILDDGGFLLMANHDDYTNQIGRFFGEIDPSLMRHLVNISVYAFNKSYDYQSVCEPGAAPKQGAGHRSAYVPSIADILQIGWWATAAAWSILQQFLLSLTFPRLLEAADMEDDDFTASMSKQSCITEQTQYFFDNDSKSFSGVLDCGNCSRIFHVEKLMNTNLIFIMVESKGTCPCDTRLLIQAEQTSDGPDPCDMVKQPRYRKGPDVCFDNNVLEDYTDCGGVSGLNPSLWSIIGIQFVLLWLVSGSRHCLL
Chain of recombinant N-type (Cav2.2) VGCC α1B-b/α2δ1/β3 expressed in Xenopus oocytes (rat; rabbit), Q02294 (P54287 whole entry, stated change not applied, chain 3 of 2, further chain): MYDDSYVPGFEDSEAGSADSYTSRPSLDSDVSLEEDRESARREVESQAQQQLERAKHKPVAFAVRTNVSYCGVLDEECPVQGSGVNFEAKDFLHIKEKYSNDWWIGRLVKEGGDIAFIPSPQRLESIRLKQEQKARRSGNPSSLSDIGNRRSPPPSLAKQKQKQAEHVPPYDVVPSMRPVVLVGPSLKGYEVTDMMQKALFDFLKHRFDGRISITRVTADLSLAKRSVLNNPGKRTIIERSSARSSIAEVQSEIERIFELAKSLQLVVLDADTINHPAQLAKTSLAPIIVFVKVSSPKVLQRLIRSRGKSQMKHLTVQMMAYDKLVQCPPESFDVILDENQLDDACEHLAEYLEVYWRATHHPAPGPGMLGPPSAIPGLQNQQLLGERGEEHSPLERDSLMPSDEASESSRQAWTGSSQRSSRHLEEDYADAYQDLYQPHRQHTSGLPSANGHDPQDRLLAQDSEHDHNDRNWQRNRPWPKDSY

Chain of recombinant N-type (Cav2.2) VGCC α1B-b/α2δ1/β3 expressed in Xenopus oocytes (rat; rabbit) (P13806 27-1106, stated change not applied, chain 2 of 2): as the sequence (P13806 27-1106, stated change not applied, chain 2 of 2) above
Chain of recombinant N-type (Cav2.2) VGCC α1B-b/α2δ1/β3 expressed in Xenopus oocytes (rat; rabbit) (P54287 whole entry, stated change not applied, chain 3 of 2, further chain): as the sequence (P54287 whole entry, stated change not applied, chain 3 of 2, further chain) above

Molecule | IC50 of inhibition of normalized peak IBa, Xenopus oocytes [1] [nM] | time constant of block (τon) at HP -80 mV [1] [s] | time constant of block (τon) at HP -125 mV [1] [s] | IC50 of inhibition of normalized peak IBa, Xenopus oocytes [2] [nM]
ω-conotoxin CVIE (peptide) | 2.6 | 31.5 | 38.5 | –
ω-conotoxin CVIB (from UniProt P58918 1-25) (peptide) | 12 | – | – | –
CKGKGASCRRTSYDCCTGSCRSGRC (modifications not checked) [ω-conotoxin CVIF] | – | – | – | 19.9
